# Results published in patent publication US20140056903A1 (Regeneron, published 2014).
# B1: H4H2292S (antibody, human IgG4, V domains shown)
# VH: EVQLVESGGGVVQPGRSLRLSCAASGFTFSSYGMHWVRQAPGKGLEWVSFIWYDGSNKYYADSVKGRFTISRDNSKNTLYLQMNSLTAEDTAVYYCARRGILTGTTAFDIWGQGTMVTVSS
# VL: DIQMTQSPSSLSASVGDRVTITCRASQSISSYLNWYQQKPGKAPKLLIYAASSLQSGVPSRFSGSGSGTDFTLTIRSLIPEDFATYYCQQTYNTPFTFGPGTKVEIK
# notes: human IgG4 Fc (H4H)
# B2: H4H2352S (antibody, human IgG4, V domains shown)
# VH: EVQLVQSGAEVKKPGASVKVSCKASGYTFTNYGITWVRQAPGQGLEWMGWISAYNGNTGYAQKFQGRVTMTTDTSTSTAYMELRSLRSDDTAVYYCAREDYDFWRAFDIWGQGTMVTVSS
# VL: EIVLTQSPGTLSLSPGERATLSCRASQSVSSTYLAWLQQKPGQAPRLLIYGASSRATGIPDRFSGSGSGTDFTLTINRLEPEDFAVYYCQQYAYSPYTFGQGTKLEIK
# notes: human IgG4 Fc (H4H); also called H4H2352S-1
# B3: H4H2350P (antibody, human IgG4, V domains shown)
# VH: QVQLQESGPGLVKPSETLSLTCTVSGGSISTYYWSWFRQPPGKGLEWIGYIYYSGSTNHNPSLKSRVTISVDTSKNQFSLKLRSVTAADTAVYYCARVGPVGWGSWGNFDYWGQGTLVTVSS
# VL: DIQLTQSPSFLSASVGDRVTITCWASQGISSYLAWSQQKPGKAPKLLIYAASTLQSGVPSRFSGSGSGTEFTLTISSLQPEDFATYYCQQLNSYPWTFGQGTKVEIK
# notes: human IgG4 Fc (H4H)
# Molecular target: T1, human GFRα3 expressed with a C-terminal myc-myc-hexahistidine tag (human, UniProt O60609 32-374, biotinylated (sites not given) in ELISA format 2 and in the Octet cross-competition; not in SPR)
# T1 construct: also called hGFRα3-mmh; hGFRα3-mmH
# Experiment: SPR, Ab captured, 37C
# Outline: (§1)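 First, each antibody was captured on an anti-mouse or anti-human IgG chip surface. Next, antigen was injected in 3-fold series, 200–7.4 nM for mmh and 100–3.7 nM for hFc constructs, with association monitored up to 4 min and dissociation up to 20 min. Finally, the traces were fitted to a 1:1 model.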
# T1 sequence (O60609 other isoform, or with tags, fused parts or gaps limits assumed): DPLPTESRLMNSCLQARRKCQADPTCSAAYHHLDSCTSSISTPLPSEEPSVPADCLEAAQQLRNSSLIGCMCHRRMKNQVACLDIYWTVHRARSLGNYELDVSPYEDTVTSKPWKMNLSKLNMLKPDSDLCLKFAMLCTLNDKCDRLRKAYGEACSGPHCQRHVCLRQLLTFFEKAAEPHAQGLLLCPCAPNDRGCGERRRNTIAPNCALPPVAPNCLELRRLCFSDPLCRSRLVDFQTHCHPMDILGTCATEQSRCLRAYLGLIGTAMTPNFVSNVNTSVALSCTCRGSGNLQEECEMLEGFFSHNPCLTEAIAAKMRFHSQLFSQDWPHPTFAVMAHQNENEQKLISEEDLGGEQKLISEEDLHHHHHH
Binder,Kd,koff,kon,t1/2
B1,1.94 nM,0.000249 s⁻¹,128000 M⁻¹ s⁻¹,0.767 h
B2,0.118 nM,0.000139 s⁻¹,1.18e+06 M⁻¹ s⁻¹,1.38 h
B3,9.61 nM,0.00128 s⁻¹,134000 M⁻¹ s⁻¹,0.15 h

# Molecular target: T2, human GFRα3 expressed with a C-terminal mFc tag (human)
# T2 construct: also called hGFRα3-mFc
# T2 chain: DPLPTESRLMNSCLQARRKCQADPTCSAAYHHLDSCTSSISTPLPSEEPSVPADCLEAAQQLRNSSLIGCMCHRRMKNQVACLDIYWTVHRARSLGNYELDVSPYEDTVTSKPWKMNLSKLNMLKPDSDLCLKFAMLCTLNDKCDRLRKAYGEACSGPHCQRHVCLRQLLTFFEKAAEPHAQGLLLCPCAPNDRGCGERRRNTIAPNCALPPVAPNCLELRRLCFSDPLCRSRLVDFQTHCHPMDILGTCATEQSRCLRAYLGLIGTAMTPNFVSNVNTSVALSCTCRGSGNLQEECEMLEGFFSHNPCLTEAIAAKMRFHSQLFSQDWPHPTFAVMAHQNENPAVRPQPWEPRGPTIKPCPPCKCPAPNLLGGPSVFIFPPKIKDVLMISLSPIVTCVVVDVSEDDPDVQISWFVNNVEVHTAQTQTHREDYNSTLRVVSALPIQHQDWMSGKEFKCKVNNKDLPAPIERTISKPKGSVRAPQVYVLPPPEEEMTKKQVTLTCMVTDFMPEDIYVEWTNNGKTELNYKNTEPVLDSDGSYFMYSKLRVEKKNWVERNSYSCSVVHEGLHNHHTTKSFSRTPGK
# Experiment: SPR, Ab captured, 37C
# Outline: as §1
Binder,Kd,koff,kon,t1/2
B1,0.0432 nM,2.57e-05 s⁻¹,596000 M⁻¹ s⁻¹,7.48 h
B2,0.0132 nM,3e-05 s⁻¹,2.28e+06 M⁻¹ s⁻¹,6.42 h
B3,0.0492 nM,0.000126 s⁻¹,2.56e+06 M⁻¹ s⁻¹,1.53 h

# Molecular target: T3, monkey GFRα3 expressed with a C-terminal myc-myc-hexahistidine tag (monkey (Mf), UniProt O60609 32-374 (human entry), limits assumed)
# T3 construct: also called MfGFRα3-mmh; MfGFRα3-mmH
# T3 chain: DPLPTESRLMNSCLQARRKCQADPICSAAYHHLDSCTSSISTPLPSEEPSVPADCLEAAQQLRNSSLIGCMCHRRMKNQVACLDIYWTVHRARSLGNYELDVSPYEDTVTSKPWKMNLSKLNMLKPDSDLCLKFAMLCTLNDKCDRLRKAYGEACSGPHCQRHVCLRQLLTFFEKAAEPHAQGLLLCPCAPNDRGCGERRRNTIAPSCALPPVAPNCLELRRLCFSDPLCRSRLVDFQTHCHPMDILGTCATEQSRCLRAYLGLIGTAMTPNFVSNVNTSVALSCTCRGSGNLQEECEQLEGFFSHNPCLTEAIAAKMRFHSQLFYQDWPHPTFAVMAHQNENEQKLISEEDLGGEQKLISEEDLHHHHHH
# Experiment: SPR, Ab captured, 37C
# Outline: as §1
Binder,Kd,koff,kon,t1/2
B1,2.18 nM,0.000195 s⁻¹,89500 M⁻¹ s⁻¹,0.983 h
B2,0.117 nM,6.53e-05 s⁻¹,557000 M⁻¹ s⁻¹,2.95 h
B3,12 nM,0.000896 s⁻¹,74800 M⁻¹ s⁻¹,0.217 h

# Molecular target: T1, human GFRα3 expressed with a C-terminal …
# Experiment: Octet cross-competition; biotin-hGFRα3-mmH pre-saturated with first antibody H4H2295S
# Method: A cross-competition assay was conducted to assess the ability of select antibodies to compete with one another for binding to human GFRα3 using an Octet RED384 biosensor (Fortebio Inc.). The entire experiment was performed at 25° C. with the flow rate of 1000 rpm in Octet HBST buffer (0.01 M HEPES pH7.4, 0.15M NaCl, 3 mM EDTA, 0.05% v/v Surfactant P20, 0.1 mg/mL BSA). To assess whether 2 antibodies were able to compete with one another for binding to their respective epitopes on biotinylated recombinant human GFRα3 expressed with a C-terminal myc-myc-hexahistidine tag (biotin-hGFRα3-mmH; SEQ ID:370), around ˜1.2 nm of biotin-hGFRα3-mmH was first captured onto streptavidin-coated Octet sensor tips (Fortebio Inc, #18-5019) by submerging the tips for 1 minute into a 10 μg/mL solution of biotin-hGFRα3-mmH. The antigen coated sensor tips were then placed into wells containing 25 μg/mL solution of a first anti-GFRα3 monoclonal antibody for 4 minutes to saturate the biotin-hGFRα3-mmH surface. The sensor tips were then subsequently dipped into wells containing 25 μ/mL solution of a second anti-GFRα3 monoclonal antibody. The sensor tips were washed in Octet HBST buffer in between every step of the experiment. The real-time binding response was monitored during the course of the experiment and the binding response at the end of every step was recorded as shown in FIG. 9. The response of mAb-2 binding to biotin-hGFRα3-mmH pre-complexed with the first antibody was compared and competitive/non-competitive behavior of different anti-GFRα3 monoclonal antibodies was determined.
row,Binder,binding response of second antibody (nm)
1,B1,1.8 nm
2,B2,1.85 nm
3,B3,1.35 nm
